From the supplement of paper PMC10065799, “High-throughput profiling of sequence recognition by tyrosine kinases and SH2 domains using bacterial peptide display” (eLife, 2023)

How the values were obtained:
Fes = Fes (UniProt P07332); assay: phosphorylation enrichment, bacterial display (enrichment ratio); higher = better substrate or ligand; peptides without Tyr show the background
Jak2 = Jak2 (UniProt O60674); assay: as above
FGFR1 = FGFR1 (UniProt P11362); assay: as above
Fyn = Fyn (UniProt P06241); assay: as above
EPHB2 = EPHB2 (UniProt P29323); assay: as above
Fer (mouse) = assay: as above
Hck = Hck (UniProt P08631); assay: as above
c-Src = assay: as above
FGFR3 = FGFR3 (UniProt P22607); assay: as above
EPHB1 = EPHB1 (UniProt P54762); assay: as above
c-Abl (mouse) = assay: as above
AncSZ = assay: as above
MERTK = MERTK (UniProt Q12866); assay: as above
Grb2 SH2 = Grb2 SH2 (UniProt P62993); assay: SH2 binding enrichment of the phosphorylated peptide, bacterial display (enrichment ratio); higher = better substrate or ligand; peptides without Tyr show the background
SHP2-C SH2 = assay: as above
c-Src SH2 = assay: as above
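Wherever SH2 binding enrichment of the phosphorylated peptide, bacterial display is given: peptide library displayed on the E. coli surface as eCPX fusions, selected cells deep-sequenced, score is each peptide's frequency after selection divided by its frequency in the input.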
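Wherever phosphorylation enrichment, bacterial display is given: 11-residue human phosphosite peptides and single-mutation variants displayed on the E. coli surface, counted by deep sequencing, each peptide's frequency after selection divided by its frequency in the unselected input library; frequency after pTyr selection over input frequency; kinase dosed for 20-30% of maximal phosphorylation in three min.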

Sequence of FGFR1 (P11362 whole entry, looked up): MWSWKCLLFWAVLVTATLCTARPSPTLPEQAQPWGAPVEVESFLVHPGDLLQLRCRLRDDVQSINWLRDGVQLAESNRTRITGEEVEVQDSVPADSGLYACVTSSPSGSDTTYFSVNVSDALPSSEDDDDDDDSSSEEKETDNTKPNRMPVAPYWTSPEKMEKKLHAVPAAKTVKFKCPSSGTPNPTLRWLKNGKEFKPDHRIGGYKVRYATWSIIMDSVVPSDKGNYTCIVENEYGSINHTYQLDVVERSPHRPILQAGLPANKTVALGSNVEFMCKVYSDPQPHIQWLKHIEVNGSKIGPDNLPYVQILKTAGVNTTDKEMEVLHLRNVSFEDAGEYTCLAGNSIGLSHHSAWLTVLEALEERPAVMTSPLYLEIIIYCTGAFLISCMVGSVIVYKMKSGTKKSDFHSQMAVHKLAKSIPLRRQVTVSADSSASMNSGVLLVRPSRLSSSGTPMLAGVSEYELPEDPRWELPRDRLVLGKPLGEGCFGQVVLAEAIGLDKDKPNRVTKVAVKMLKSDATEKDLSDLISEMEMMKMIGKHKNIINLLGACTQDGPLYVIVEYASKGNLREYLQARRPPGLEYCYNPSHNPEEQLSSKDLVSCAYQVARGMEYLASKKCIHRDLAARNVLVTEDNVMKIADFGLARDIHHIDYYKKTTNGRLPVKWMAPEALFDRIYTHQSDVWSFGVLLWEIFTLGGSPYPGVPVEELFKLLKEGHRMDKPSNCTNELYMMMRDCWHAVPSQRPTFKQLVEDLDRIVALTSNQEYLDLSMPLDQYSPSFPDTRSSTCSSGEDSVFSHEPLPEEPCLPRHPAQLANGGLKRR
Sequence of Fyn (P06241 whole entry, looked up): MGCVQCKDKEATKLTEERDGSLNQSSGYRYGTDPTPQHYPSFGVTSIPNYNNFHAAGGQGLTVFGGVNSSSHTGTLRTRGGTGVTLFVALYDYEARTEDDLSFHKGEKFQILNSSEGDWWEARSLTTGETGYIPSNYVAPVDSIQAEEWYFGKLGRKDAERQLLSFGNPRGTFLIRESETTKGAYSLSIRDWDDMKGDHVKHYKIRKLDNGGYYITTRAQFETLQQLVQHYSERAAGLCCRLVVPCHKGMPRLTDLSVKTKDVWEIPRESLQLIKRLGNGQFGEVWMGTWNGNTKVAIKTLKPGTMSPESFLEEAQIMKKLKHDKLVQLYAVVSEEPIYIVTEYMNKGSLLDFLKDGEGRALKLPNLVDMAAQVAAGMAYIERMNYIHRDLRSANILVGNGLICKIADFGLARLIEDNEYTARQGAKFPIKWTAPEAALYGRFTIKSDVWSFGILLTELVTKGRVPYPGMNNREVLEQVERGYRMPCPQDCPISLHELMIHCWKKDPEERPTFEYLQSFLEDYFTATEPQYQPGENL
Sequence of EPHB1 (P54762 whole entry, looked up): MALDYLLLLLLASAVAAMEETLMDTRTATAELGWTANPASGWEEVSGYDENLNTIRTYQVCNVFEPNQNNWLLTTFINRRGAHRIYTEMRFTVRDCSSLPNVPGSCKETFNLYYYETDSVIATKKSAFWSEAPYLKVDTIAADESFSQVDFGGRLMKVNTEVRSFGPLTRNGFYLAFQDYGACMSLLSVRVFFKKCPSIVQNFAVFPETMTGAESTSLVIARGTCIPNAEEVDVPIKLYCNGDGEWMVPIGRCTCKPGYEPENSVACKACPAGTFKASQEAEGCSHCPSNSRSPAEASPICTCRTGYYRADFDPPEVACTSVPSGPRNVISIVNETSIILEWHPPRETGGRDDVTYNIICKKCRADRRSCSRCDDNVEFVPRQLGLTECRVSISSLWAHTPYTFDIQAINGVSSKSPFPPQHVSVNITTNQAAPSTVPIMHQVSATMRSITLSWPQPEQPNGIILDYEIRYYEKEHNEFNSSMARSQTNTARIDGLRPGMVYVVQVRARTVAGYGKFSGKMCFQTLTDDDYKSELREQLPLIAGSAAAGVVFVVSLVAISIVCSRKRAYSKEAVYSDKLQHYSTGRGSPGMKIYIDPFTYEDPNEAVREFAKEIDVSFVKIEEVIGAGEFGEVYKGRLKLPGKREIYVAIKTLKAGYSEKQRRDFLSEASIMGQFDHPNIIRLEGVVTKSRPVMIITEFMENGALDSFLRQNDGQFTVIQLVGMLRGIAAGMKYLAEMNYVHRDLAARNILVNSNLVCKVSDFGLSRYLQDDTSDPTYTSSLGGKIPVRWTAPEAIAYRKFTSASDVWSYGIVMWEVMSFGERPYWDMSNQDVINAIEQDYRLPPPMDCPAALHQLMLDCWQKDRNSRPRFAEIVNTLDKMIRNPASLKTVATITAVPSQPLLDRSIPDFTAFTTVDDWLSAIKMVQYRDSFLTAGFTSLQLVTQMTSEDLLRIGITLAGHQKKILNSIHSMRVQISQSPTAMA
Sequence of EPHB2 (P29323 whole entry, looked up): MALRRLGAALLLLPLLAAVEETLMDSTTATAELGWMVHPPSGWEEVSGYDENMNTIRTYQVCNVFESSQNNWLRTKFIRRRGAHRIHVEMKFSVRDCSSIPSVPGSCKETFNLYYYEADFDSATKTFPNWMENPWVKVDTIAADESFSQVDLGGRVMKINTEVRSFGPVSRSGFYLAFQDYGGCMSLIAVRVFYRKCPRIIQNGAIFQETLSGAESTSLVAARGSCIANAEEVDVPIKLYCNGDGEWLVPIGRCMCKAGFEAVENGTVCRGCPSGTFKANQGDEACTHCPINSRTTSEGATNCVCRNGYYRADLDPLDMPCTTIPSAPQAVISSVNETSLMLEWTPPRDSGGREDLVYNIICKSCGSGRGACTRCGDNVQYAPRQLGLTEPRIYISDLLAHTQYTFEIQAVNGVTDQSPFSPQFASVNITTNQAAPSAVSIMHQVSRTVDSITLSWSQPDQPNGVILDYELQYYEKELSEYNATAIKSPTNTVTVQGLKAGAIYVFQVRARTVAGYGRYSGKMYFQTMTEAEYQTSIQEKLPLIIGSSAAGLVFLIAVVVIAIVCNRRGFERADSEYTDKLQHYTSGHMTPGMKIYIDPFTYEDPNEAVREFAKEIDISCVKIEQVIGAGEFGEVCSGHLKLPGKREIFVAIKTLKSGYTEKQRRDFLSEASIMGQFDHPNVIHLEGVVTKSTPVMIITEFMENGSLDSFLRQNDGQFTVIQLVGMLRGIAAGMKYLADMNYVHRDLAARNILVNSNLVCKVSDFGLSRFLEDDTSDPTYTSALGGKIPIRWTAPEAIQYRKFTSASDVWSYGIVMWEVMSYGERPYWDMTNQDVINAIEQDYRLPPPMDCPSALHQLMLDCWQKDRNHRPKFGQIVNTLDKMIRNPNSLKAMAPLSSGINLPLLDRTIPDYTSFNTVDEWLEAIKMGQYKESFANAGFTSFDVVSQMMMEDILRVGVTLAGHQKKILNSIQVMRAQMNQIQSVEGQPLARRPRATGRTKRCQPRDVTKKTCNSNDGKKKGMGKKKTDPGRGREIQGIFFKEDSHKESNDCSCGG
Sequence of FGFR3 (P22607 whole entry, looked up): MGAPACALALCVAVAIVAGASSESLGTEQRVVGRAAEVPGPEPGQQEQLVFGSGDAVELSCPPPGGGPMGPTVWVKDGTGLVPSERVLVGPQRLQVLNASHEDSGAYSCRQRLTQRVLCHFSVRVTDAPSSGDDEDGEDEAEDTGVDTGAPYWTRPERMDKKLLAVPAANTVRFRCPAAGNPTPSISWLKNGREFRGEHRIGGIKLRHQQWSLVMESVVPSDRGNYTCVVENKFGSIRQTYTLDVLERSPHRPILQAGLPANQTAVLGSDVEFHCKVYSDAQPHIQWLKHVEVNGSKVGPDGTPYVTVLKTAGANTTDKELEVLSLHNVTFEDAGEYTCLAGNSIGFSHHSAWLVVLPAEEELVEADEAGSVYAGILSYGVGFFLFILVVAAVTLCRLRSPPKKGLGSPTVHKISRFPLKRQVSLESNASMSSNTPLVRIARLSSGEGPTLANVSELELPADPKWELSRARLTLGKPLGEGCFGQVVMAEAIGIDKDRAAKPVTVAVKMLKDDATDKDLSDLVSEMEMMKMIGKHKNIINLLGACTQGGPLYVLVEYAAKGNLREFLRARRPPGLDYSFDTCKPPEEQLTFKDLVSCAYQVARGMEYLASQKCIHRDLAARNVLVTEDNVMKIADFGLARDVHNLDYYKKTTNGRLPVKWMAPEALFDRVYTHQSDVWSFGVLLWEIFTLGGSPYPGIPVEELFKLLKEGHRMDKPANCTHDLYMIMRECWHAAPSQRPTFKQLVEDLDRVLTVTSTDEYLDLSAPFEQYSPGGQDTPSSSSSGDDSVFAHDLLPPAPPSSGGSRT
Sequence of Hck (P08631 whole entry, looked up): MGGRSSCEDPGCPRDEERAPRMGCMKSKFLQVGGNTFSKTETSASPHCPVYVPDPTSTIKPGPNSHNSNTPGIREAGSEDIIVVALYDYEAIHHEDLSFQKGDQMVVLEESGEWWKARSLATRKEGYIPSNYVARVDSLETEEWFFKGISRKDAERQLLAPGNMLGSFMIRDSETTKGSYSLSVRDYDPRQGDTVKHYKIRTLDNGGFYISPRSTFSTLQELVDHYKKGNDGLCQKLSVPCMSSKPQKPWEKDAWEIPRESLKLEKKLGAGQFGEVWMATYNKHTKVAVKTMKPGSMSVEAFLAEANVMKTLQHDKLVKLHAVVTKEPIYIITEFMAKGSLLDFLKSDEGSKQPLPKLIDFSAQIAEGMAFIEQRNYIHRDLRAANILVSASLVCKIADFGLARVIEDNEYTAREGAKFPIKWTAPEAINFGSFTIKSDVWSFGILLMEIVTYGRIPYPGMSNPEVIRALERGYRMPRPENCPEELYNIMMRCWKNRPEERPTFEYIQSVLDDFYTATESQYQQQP

SH2 binding enrichment (Grb2 SH2)	SH2 binding enrichment (SHP2-C SH2)	SH2 binding enrichment (c-Src SH2)	Sequence	phosphorylation enrichment (Fes)	phosphorylation enrichment (Jak2)	phosphorylation enrichment (FGFR1)	phosphorylation enrichment (Fyn)	phosphorylation enrichment (EPHB2)	phosphorylation enrichment (Fer (mouse))	phosphorylation enrichment (Hck)	phosphorylation enrichment (c-Src)	phosphorylation enrichment (FGFR3)	phosphorylation enrichment (EPHB1)	phosphorylation enrichment (c-Abl (mouse))	phosphorylation enrichment (AncSZ)	phosphorylation enrichment (MERTK)
0.819	0.578	0.497	STFVPCEIKVQ [L1CAM_Y784_Y784C]	1.61	1.39	0.579	0.49	0.727	0.669	0.589	0.444	1.05	0.685	1.04	1.3	0.386
1.36	1.07	1.75	KMTGRYEMFAR [UPB1_Y362_YF]	0.815	0.586	0.499	0.386	0.556	0.438	0.505	0.451	0.53	0.496	0.571	0.808	0.633
0.744	0.641	0.373	SSMIDYNPLEK [MYOC_Y479]	0.945	1.07	0.475	0.596	0.533	0.44	0.512	0.689	0.595	0.517	0.663	0.971	0.463
1.06	0.552	0.637	FENGEYIVRQG [PRKG1_Y247_I249V_YF]	0.962	0.685	0.437	0.468	0.641	0.523	0.551	0.43	0.922	0.612	0.646	0.888	0.39
0.982	0.647	0.55	DLTQDYEEWKR [ORC6_Y232]	1.47	1.28	0.509	0.707	0.882	0.715	0.845	0.696	0.862	0.796	0.84	1.8	0.526
0.636	0.565	0.412	KGEDFYYVTCH [FHL1_Y149_C150Y]	1.43	1.43	1.35	0.692	0.729	0.71	0.724	0.774	1.69	0.802	1.11	1.35	1.32
1.07	0.784	0.705	MCITRYERESQ [PRNP_Y218_Q217R]	0.813	0.769	0.433	0.404	0.528	0.488	0.469	0.404	0.541	0.429	0.466	1.03	0.457
0.889	0.707	0.535	ASFPLYEPAKM [MKI67_Y340]	1.52	0.484	0.426	4.36	21.1	16.3	8.34	2.97	0.493	18.1	0.635	0.789	3.18
0.803	0.674	0.613	KSFDMYSGDVM [FAM3D_Y122_A118S]	0.856	0.698	0.654	1.06	1.22	0.589	1.13	1.1	0.667	1.6	0.609	0.998	0.914

Further lines, the sequence ahead of its results:

Sequence	SH2 binding enrichment (Grb2 SH2)	SH2 binding enrichment (SHP2-C SH2)	SH2 binding enrichment (c-Src SH2)	phosphorylation enrichment (Fes)	phosphorylation enrichment (Jak2)	phosphorylation enrichment (FGFR1)	phosphorylation enrichment (Fyn)	phosphorylation enrichment (EPHB2)	phosphorylation enrichment (Fer (mouse))	phosphorylation enrichment (Hck)	phosphorylation enrichment (c-Src)	phosphorylation enrichment (FGFR3)	phosphorylation enrichment (EPHB1)	phosphorylation enrichment (c-Abl (mouse))	phosphorylation enrichment (AncSZ)	phosphorylation enrichment (MERTK)
IQSAKYDMAED [TTC21B_Y1213]	0.823	0.679	1.3	1.21	1.2	0.611	0.59	0.724	0.503	0.687	0.513	0.793	0.572	0.825	1.21	0.484
NVLPEYKLQAP [KCNH2_Y388_D383N]	0.906	0.564	0.455	0.949	0.813	0.411	0.508	0.632	0.402	0.527	0.439	0.619	0.518	0.677	0.784	0.43
PKGTGYIKTEL [STAT1_Y701]	0.93	0.893	0.446	0.835	0.986	0.792	0.512	0.557	0.801	0.748	0.635	1.01	0.411	0.559	0.973	0.694
QTSTDYDIRFY [CSNK2A1_Y131_L128S]	0.707	0.625	0.36	1.86	1.47	1.08	0.981	1.36	0.844	0.89	0.785	1.04	1.22	1.2	1.46	0.869
DCAAIYGNEPE [AKR1A1_Y50]	0.966	0.689	0.72	1.22	1.42	0.588	1.02	0.694	0.672	0.897	1.42	0.734	0.612	0.799	1.27	0.806
EYKDAYKFAAD [BRDT_Y335]	0.861	0.572	0.864	1.14	0.722	0.511	0.499	0.553	0.559	0.542	0.495	0.632	0.59	0.666	0.984	0.475
TMKSRYMELFD [BBS2_Y644_YF]	0.945	0.634	4.89	0.914	0.71	0.482	0.447	0.437	0.382	0.48	0.418	0.667	0.523	0.613	0.765	0.42
